Experimental findings from paper PMC5413351 (2017) are described below.

Among the targets are Vps4^101-437-Hcp1 R325D (S. cerevisiae | Pseudomonas aeruginosa, UniProt P52917 101-437, R325D); Vps4^101-437-Hcp1 K321A (S. cerevisiae | Pseudomonas aeruginosa, UniProt P52917 101-437, K321A); Vps4^101-437-Hcp1 E322A (S. cerevisiae | Pseudomonas aeruginosa, UniProt P52917 101-437, E322A); Vps4^101-437-Hcp1 (S. cerevisiae | Pseudomonas aeruginosa, UniProt P52917 101-437).
Common to all, as to experiment: FP
A further assay concerns the target T1, Vps4^101-437 L151D (S. cerevisiae, UniProt P52917 101-437, L151D).
T1 sequence: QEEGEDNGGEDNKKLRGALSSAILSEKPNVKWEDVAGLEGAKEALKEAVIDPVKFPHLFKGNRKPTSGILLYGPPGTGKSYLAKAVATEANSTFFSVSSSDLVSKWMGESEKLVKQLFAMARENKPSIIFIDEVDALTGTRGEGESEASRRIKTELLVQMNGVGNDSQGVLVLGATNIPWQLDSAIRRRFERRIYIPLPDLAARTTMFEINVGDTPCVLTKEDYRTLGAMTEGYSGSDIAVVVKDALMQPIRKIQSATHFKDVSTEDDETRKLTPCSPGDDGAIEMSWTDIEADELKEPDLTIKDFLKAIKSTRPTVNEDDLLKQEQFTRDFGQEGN

Where no end group is shown, it is not given here. fluorescein‑5‑maleimide = fluorescein-5-maleimide

B1: fluorescently labeled Vta1^VSL S278C (domain or fragment)
chain: C(fluorescein‑5‑maleimide)YTKDELTKIMDRASKIEQIQKLAKYAISALNYEDLPTAKDELTKALDLLNSI
In turn, B1 had a Kd with Vps4^101-437 L151D of 4400 nM.

B2: fluorescently labeled Vta1^VSL S278C (domain or fragment)
chain: MASNAARVVATAKDFDKVGLGIIGYYLQLYAVELILSEEDRSQEMTALATELLDTIEAFKKEIGGESEAEDSDKSLHVMNTLIHDQEKAKIYMLNFTMSLYNEKLKQLKDGPWDVMLKRSLWCCIDLFSCILHLWKENISETSTNSLQKRIKYCKIYLSKLAKGEIGSSDEKTLDYADFADDSEEIKDEDVDHQTSDLENNNNDKVEGLAPKDQTTSYEPVDEVPEFIDDADSVNEEEQTVDKNEDAITKDEQQVVKKEVDLTRPSAPSEPAAAEHKCYTKDELTKIMDRASKIEQIQKLAKYAISALNYEDLPTAKDELTKALDLLNSI
modifications: fluorescein-5-maleimide on the single cysteine (S278C)
As for B2, the Kd in the assay with Vps4^101-437-Hcp1 R325D was determined as 564 nM; in the assay with Vps4^101-437-Hcp1 K321A, 367 nM; in the assay with Vps4^101-437-Hcp1 E322A, 72 nM; with Vps4^101-437-Hcp1 it was 184 nM.

For orientation: Kd means the constant that tells how readily two partners part at equilibrium.
